{"source": "paper PMC11429718", "key": {"[1]": {"target": "329 SOSIP.v8.2 Env trimer (HIV-1 clade C (isolate 329.14.B1))", "test": "negative-stain electron microscopy"}, "[2]": {"target": "329 SOSIP.v8.2 Env trimer (HIV-1 clade C (isolate 329.14.B1))", "test": "native gel or EMSA"}}, "data": [{"substance": "329 SOSIP.v8.2 Env trimer (complex)", "values": [{"measurement": "stoichiometry N", "setting": "[1]", "result": 3}, {"measurement": "stoichiometry N", "setting": "[2]", "result": 3}]}]}
